We go through two molecules from PMC9638028, “Yeast Smy2 and its human homologs GIGYF1 and -2 regulate Cdc48/VCP function during transcription stress” (Cell Reports, 2022).

Substitutions are numbered along the chain they refer to. Names and notes keep the numbering of the source.

The target of this experiment is T1, Cdc48-FLAG3 (S. cerevisiae, UniProt P25694 1-835).
T1 construct: Cdc48, S. cerevisiae; the results and the purification methods say it was purified from yeast; also called FLAG-tagged Cdc48; purified Cdc48; source: S. cerevisiae W303, expressed from the endogenous locus; in extract for the co-IP
The experiment can be described thus: pull-down; GST, GST-GYF or GST-GAF on glutathione beads, 10-fold molar excess of Cdc48-Flag; 20 mM Tris pH 7.5, 200 mM NaCl, 0.05% Triton X-100, 15% glycerol, 75 ug/mL BSA; 2 h; western blot. The conditions noted are these: both partners purified.

T1 sequence (P25694 whole entry): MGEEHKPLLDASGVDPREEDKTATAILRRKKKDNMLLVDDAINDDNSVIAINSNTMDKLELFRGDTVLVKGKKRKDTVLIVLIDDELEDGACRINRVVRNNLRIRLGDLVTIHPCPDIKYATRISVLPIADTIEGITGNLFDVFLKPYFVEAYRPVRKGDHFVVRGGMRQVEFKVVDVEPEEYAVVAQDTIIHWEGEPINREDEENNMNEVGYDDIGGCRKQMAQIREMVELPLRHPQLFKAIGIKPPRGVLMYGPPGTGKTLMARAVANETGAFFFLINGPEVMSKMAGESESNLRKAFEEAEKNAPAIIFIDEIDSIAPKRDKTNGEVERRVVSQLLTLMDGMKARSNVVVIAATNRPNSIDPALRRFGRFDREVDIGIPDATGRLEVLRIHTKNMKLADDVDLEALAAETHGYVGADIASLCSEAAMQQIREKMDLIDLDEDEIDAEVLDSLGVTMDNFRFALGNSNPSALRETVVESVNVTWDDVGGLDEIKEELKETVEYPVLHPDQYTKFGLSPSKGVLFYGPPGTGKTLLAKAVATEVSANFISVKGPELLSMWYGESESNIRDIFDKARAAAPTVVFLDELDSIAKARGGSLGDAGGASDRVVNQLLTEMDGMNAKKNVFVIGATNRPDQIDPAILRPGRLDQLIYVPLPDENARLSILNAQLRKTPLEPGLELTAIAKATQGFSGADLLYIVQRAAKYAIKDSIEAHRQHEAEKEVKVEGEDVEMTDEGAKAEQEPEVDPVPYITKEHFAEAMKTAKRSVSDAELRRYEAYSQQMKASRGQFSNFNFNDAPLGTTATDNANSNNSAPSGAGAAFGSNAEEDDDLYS

B1: GST-Smy2 (205-261), GYF (domain or fragment, S. cerevisiae, UniProt P32909 205-261, looked up)
chain: ESSWRYIDTQGQIHGPFTTQMMSQWYIGGYFASTLQISRLGSTPETLGINDIFITLG
notes: Smy2, S. cerevisiae, amino acids 205-261 holding the GYF motif; Vector pGST 6p-1 / pGEX 6p-1; also called GST-GYF; GST-Smy_(205-261); source: bacterial expression (E. coli), purified on glutathione agarose beads
Consider B1, for which the binding result is given as “binds”.

B2: GST-Smy2 (205-261) Y234A, GAF (domain or fragment, S. cerevisiae, UniProt P32909 205-261, looked up)
chain: B1 chain with Y30A
notes: Smy2, S. cerevisiae, amino acids 205-261 with the GYF motif changed to GAF; also called GST-GAF; mutated (GAF) version; source: bacterial expression (E. coli), purified on glutathione agarose beads
Turning to B2, the binding result is recorded as “binds”.
